Test results taken from PMC2685113.

Target: streptavidin (UniProt P22629 25-183)
Assay: EMSA

Chain of streptavidin (P22629 25-183): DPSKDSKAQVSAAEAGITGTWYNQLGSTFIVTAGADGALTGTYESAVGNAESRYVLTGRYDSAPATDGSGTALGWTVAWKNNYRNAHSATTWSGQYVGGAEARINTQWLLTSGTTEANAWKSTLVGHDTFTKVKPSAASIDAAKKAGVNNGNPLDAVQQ

B1: S1-77 (structured_RNA)
RNA: GGGCCAUCGAUGCGGCCGCCGACCAGAAUCAUGCAAGUGCGUAAGAUAGUCGCGGGUCGGCGGCCGCAUCGAUGGCC
B1: binds.
